From paper doi:10.1101/2022.11.28.518222

Target: IRF6 (human, UniProt O14896 1-467)
Assay: EMSA

B1: IRF6 motif trimer EMSA probe (dsDNA)
DNA 1: TGGTTTCGGTTGACTTGGTTTCGGTTGACTTGGTTTCGGTTGA
DNA 2: TCAACCGAAACCAAGTCAACCGAAACCAAGTCAACCGAAACCA
B1: binds.
